US20150374794A1 (Novo Nordisk, published 2015)
Numbered stars: 1 amine (or outer) side, 2 acyl side, 3 side chain; on linkers, the order of the positions; unused ones are H or OH. Square brackets hold non-standard residues; d marks the D form. Side chains are listed from the residue outwards. Ends that are not written are not given here. * marks the point of attachment. C18 diacid = O=C(O)CCCCCCCCCCCCCCCCC(=O)*; γGlu = O=C(O)[C@H](CCC(=O)[*:2])N[*:1]; Ac4c = NC1(C(=O)O)CCC1; AEEA = NCCOCCOCC(=O)O; Aib = CC(C)(N)C(=O)O

B1: N^ε28-[(4S)-4-carboxy-4-[[(4S)-4-carboxy-4-[[2-[2-[2-[[2-[2-[2-[[(4S)-4-carboxy-4-[[(4S)-4-carboxy-4-(17-carboxyheptadecanoylamino)butanoyl]amino]butanoyl]amino … (peptide)
peptide: H[Ac4c]QGTFTSDLSKYLDLKRAREFVQWLLK([γGlu-γGlu-AEEA-AEEA-γGlu-γGlu-C18 diacid])T-NH2
modifications: N-terminus assumed
SMILES: CC(C)C[C@H](NC(=O)[C@H](CC(=O)O)NC(=O)[C@H](CC(C)C)NC(=O)[C@H](Cc1ccc(O)cc1)NC(=O)[C@H](CCCCN)NC(=O)[C@H](CO)NC(=O)[C@H](CC(C)C)NC(=O)[C@H](CC(=O)O)NC(=O)[C@H](CO)NC(=O)[C@@H](NC(=O)[C@H](Cc1ccccc1)NC(=O)[C@@H](NC(=O)CNC(=O)[C@H](CCC(N)=O)NC(=O)C1(NC(=O)[C@@H](N)Cc2c[nH]cn2)CCC1)[C@@H](C)O)[C@@H](C)O)C(=O)N[C@@H](CCCCN)C(=O)N[C@@H](CCCNC(=N)N)C(=O)N[C@@H](C)C(=O)N[C@@H](CCCNC(=N)N)C(=O)N[C@@H](CCC(=O)O)C(=O)N[C@@H](Cc1ccccc1)C(=O)N[C@H](C(=O)N[C@@H](CCC(N)=O)C(=O)N[C@@H](Cc1c[nH]c2ccccc12)C(=O)N[C@@H](CC(C)C)C(=O)N[C@@H](CC(C)C)C(=O)N[C@@H](CCCCNC(=O)CC[C@H](NC(=O)CC[C@H](NC(=O)COCCOCCNC(=O)COCCOCCNC(=O)CC[C@H](NC(=O)CC[C@H](NC(=O)CCCCCCCCCCCCCCCCC(=O)O)C(=O)O)C(=O)O)C(=O)O)C(=O)O)C(=O)N[C@H](C(N)=O)[C@@H](C)O)C(C)C
B2: N^ε29-[(4S)-4-carboxy-4-[[2-[2-[2-[[2-[2-[2-[[(4S)-4-carboxy-4-[[(4S)-4-carboxy-4-(17-carboxyheptadecanoylamino)butanoyl]amino]butanoyl]amino]ethoxy]ethoxy]acet … (peptide)
peptide: H[Aib]QGTFTSDLSKYLDKRRAREFVAWLLNT-NH2
modifications: not fully specified (residue 16)
B3: N^ε29-[(4S)-4-carboxy-4-[[(4S)-4-carboxy-4-[[2-[2-[2-[[2-[2-[2-[[(4S)-4-carboxy-4-(17-carboxyheptadecanoylamino)butanoyl]amino]ethoxy]ethoxy]acetyl]amino]ethoxy … (peptide)
peptide: H[Aib]QGTFTSDLSKYLDARRARDFVQWLLNK([γGlu-γGlu-AEEA-AEEA-γGlu-C18 diacid])-NH2
modifications: N-terminus assumed
SMILES: CC(C)C[C@H](NC(=O)[C@H](Cc1ccc(O)cc1)NC(=O)[C@H](CCCCN)NC(=O)[C@H](CO)NC(=O)[C@H](CC(C)C)NC(=O)[C@H](CC(=O)O)NC(=O)[C@H](CO)NC(=O)[C@@H](NC(=O)[C@H](Cc1ccccc1)NC(=O)[C@@H](NC(=O)CNC(=O)[C@H](CCC(N)=O)NC(=O)C(C)(C)NC(=O)[C@@H](N)Cc1c[nH]cn1)[C@@H](C)O)[C@@H](C)O)C(=O)N[C@@H](CC(=O)O)C(=O)N[C@@H](C)C(=O)N[C@@H](CCCNC(=N)N)C(=O)N[C@@H](CCCNC(=N)N)C(=O)N[C@@H](C)C(=O)N[C@@H](CCCNC(=N)N)C(=O)N[C@@H](CC(=O)O)C(=O)N[C@@H](Cc1ccccc1)C(=O)N[C@H](C(=O)N[C@@H](CCC(N)=O)C(=O)N[C@@H](Cc1c[nH]c2ccccc12)C(=O)N[C@@H](CC(C)C)C(=O)N[C@@H](CC(C)C)C(=O)N[C@@H](CC(N)=O)C(=O)N[C@@H](CCCCNC(=O)CC[C@H](NC(=O)CC[C@H](NC(=O)COCCOCCNC(=O)COCCOCCNC(=O)CC[C@H](NC(=O)CCCCCCCCCCCCCCCCC(=O)O)C(=O)O)C(=O)O)C(=O)O)C(N)=O)C(C)C
B4: N^ε28-[(4S)-4-carboxy-4-[[(4S)-4-carboxy-4-[[(2S)-2-[[(2S)-4-carboxy-2-[[(2S)-2-[[(4S)-4-carboxy-4-[[(4S)-4-carboxy-4-(17-carboxyheptadecanoylamino)butanoyl]ami … (peptide)
peptide: H[Aib]QGTFTSDLSKYLESKRARSFVQWLLK([γGlu-γGlu-Ser-Glu-Ser-γGlu-γGlu-C18 diacid])T-NH2
B5: N^ε28-[(4S)-4-carboxy-4-[[(4S)-4-carboxy-4-[[2-[2-[2-[[2-[2-[2-[[(4S)-4-carboxy-4-[[(4S)-4-carboxy-4-(17-carboxyheptadecanoylamino)butanoyl]amino]butanoyl]amino … (peptide)
peptide: H[Ac4c]QGTFTSDLSKYLDLRRAREFVQWLLK([γGlu-γGlu-AEEA-AEEA-γGlu-γGlu-C18 diacid])T-NH2
modifications: N-terminus assumed
SMILES: CC(C)C[C@H](NC(=O)[C@H](CC(=O)O)NC(=O)[C@H](CC(C)C)NC(=O)[C@H](Cc1ccc(O)cc1)NC(=O)[C@H](CCCCN)NC(=O)[C@H](CO)NC(=O)[C@H](CC(C)C)NC(=O)[C@H](CC(=O)O)NC(=O)[C@H](CO)NC(=O)[C@@H](NC(=O)[C@H](Cc1ccccc1)NC(=O)[C@@H](NC(=O)CNC(=O)[C@H](CCC(N)=O)NC(=O)C1(NC(=O)[C@@H](N)Cc2c[nH]cn2)CCC1)[C@@H](C)O)[C@@H](C)O)C(=O)N[C@@H](CCCNC(=N)N)C(=O)N[C@@H](CCCNC(=N)N)C(=O)N[C@@H](C)C(=O)N[C@@H](CCCNC(=N)N)C(=O)N[C@@H](CCC(=O)O)C(=O)N[C@@H](Cc1ccccc1)C(=O)N[C@H](C(=O)N[C@@H](CCC(N)=O)C(=O)N[C@@H](Cc1c[nH]c2ccccc12)C(=O)N[C@@H](CC(C)C)C(=O)N[C@@H](CC(C)C)C(=O)N[C@@H](CCCCNC(=O)CC[C@H](NC(=O)CC[C@H](NC(=O)COCCOCCNC(=O)COCCOCCNC(=O)CC[C@H](NC(=O)CC[C@H](NC(=O)CCCCCCCCCCCCCCCCC(=O)O)C(=O)O)C(=O)O)C(=O)O)C(=O)O)C(=O)N[C@H](C(N)=O)[C@@H](C)O)C(C)C
B6: N^ε28-[(4S)-4-carboxy-4-[[(4S)-4-carboxy-4-[[(4S)-4-carboxy-4-(17-carboxyheptadecanoylamino)butanoyl]amino]butanoyl]amino]butanoyl]-[Aib2,Leu10,Arg12,Ala16,Arg2 … (peptide)
peptide: H[Aib]QGTFTSDLSRYLDARRARDFVQWLLK([γGlu-γGlu-γGlu-C18 diacid])T-NH2
modifications: N-terminus assumed
SMILES: CC(C)C[C@H](NC(=O)[C@H](Cc1ccc(O)cc1)NC(=O)[C@H](CCCNC(=N)N)NC(=O)[C@H](CO)NC(=O)[C@H](CC(C)C)NC(=O)[C@H](CC(=O)O)NC(=O)[C@H](CO)NC(=O)[C@@H](NC(=O)[C@H](Cc1ccccc1)NC(=O)[C@@H](NC(=O)CNC(=O)[C@H](CCC(N)=O)NC(=O)C(C)(C)NC(=O)[C@@H](N)Cc1c[nH]cn1)[C@@H](C)O)[C@@H](C)O)C(=O)N[C@@H](CC(=O)O)C(=O)N[C@@H](C)C(=O)N[C@@H](CCCNC(=N)N)C(=O)N[C@@H](CCCNC(=N)N)C(=O)N[C@@H](C)C(=O)N[C@@H](CCCNC(=N)N)C(=O)N[C@@H](CC(=O)O)C(=O)N[C@@H](Cc1ccccc1)C(=O)N[C@H](C(=O)N[C@@H](CCC(N)=O)C(=O)N[C@@H](Cc1c[nH]c2ccccc12)C(=O)N[C@@H](CC(C)C)C(=O)N[C@@H](CC(C)C)C(=O)N[C@@H](CCCCNC(=O)CC[C@H](NC(=O)CC[C@H](NC(=O)CC[C@H](NC(=O)CCCCCCCCCCCCCCCCC(=O)O)C(=O)O)C(=O)O)C(=O)O)C(=O)N[C@H](C(N)=O)[C@@H](C)O)C(C)C
B7: N^ε29-[(4S)-4-carboxy-4-[[2-[2-[2-[[2-[2-[2-[[(4S)-4-carboxy-4-[[(4S)-4-carboxy-4-(17-carboxyheptadecanoylamino)butanoyl]amino]butanoyl]amino]ethoxy]ethoxy]acet … (peptide)
peptide: H[Aib]QGTFTSDLSKYLESRRAREFVQWLLNK([γGlu-AEEA-AEEA-γGlu-γGlu-C18 diacid])-NH2
modifications: N-terminus assumed
SMILES: CC(C)C[C@H](NC(=O)[C@H](CC(C)C)NC(=O)[C@H](Cc1c[nH]c2ccccc12)NC(=O)[C@H](CCC(N)=O)NC(=O)[C@@H](NC(=O)[C@H](Cc1ccccc1)NC(=O)[C@H](CCC(=O)O)NC(=O)[C@H](CCCNC(=N)N)NC(=O)[C@H](C)NC(=O)[C@H](CCCNC(=N)N)NC(=O)[C@H](CCCNC(=N)N)NC(=O)[C@H](CO)NC(=O)[C@H](CCC(=O)O)NC(=O)[C@H](CC(C)C)NC(=O)[C@H](Cc1ccc(O)cc1)NC(=O)[C@H](CCCCN)NC(=O)[C@H](CO)NC(=O)[C@H](CC(C)C)NC(=O)[C@H](CC(=O)O)NC(=O)[C@H](CO)NC(=O)[C@@H](NC(=O)[C@H](Cc1ccccc1)NC(=O)[C@@H](NC(=O)CNC(=O)[C@H](CCC(N)=O)NC(=O)C(C)(C)NC(=O)[C@@H](N)Cc1c[nH]cn1)[C@@H](C)O)[C@@H](C)O)C(C)C)C(=O)N[C@@H](CC(N)=O)C(=O)N[C@@H](CCCCNC(=O)CC[C@H](NC(=O)COCCOCCNC(=O)COCCOCCNC(=O)CC[C@H](NC(=O)CC[C@H](NC(=O)CCCCCCCCCCCCCCCCC(=O)O)C(=O)O)C(=O)O)C(=O)O)C(N)=O

Target: T1, human glucagon receptor (human, UniProt P47871 26-477)
T1 sequence (P47871 26-477): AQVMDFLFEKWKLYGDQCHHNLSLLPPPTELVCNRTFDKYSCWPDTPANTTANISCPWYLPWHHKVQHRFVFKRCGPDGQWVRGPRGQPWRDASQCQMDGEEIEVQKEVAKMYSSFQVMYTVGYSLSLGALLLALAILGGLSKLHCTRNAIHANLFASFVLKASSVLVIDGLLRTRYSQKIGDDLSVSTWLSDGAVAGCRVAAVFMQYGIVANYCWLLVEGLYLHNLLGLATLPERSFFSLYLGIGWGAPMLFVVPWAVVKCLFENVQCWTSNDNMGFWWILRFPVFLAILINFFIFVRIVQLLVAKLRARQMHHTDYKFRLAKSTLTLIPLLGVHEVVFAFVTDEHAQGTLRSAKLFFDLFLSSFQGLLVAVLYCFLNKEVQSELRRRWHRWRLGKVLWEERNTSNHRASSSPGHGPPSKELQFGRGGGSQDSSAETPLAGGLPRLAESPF
Assay: cell-based or functional assay

Point of comparison: B7, “EC50 GlucR, CRE luciferase reporter gene assay in BHK cells” value 0.24 nM. Against it:
- B1 — 48-fold lower, 0.005 nM
- B2 — 6-fold lower, 0.0399 nM
- B3 — 5.5-fold lower, 0.044 nM
- B4 — 3.5-fold lower, 0.068 nM
- B5 — 60-fold lower, 0.004 nM
- B6 — 24-fold lower, 0.01 nM

Target: T2, human GLP-1 receptor (human, UniProt P43220 24-463)
Assay: cell-based or functional assay

Point of comparison: B7, “EC50 GLP-1R, CRE luciferase reporter gene assay in BHK cells” value 0.0027 nM. Against it:
- B1 — 6.3-fold higher, 0.017 nM
- B2 — 1.7-fold higher, 0.0047 nM
- B3 — 2.2-fold higher, 0.006 nM
- B4 — 2.6-fold higher, 0.007 nM
- B5 — 6.3-fold higher, 0.017 nM
- B6 — 3-fold higher, 0.008 nM

Target: T1, human glucagon receptor
Assay: displacement of 125I-glucagon, membranes with human glucagon receptor, SPA
Experimental: (§1) The receptor binding of each compound to the human glucagon receptor was measured in a displacement binding assay. […] Each derivative was added in a series of concentrations to isolated membranes containing the human glucagon receptor and displacement of the labelled ligand is monitored. The receptor binding was reported as the concentration at which half of the labelled ligand is displaced from the receptor, the IC₅₀ value.

Point of comparison: B7, IC50 51 nM. Against it:
- B1 — 34-fold lower, 1.5 nM
- B2 — 6-fold lower, 8.5 nM
- B3 — 3-fold lower, 17 nM
- B4 — 5.4-fold lower, 9.5 nM
- B5 — 30-fold lower, 1.7 nM
- B6 — 13-fold lower, 3.9 nM

Target: T2, human GLP-1 receptor
Assay: displacement of 125I-GLP-1(7-36)NH2, membranes with human GLP-1R, SPA
Experimental: as §1, with “human GLP-1” for “human glucagon”, “ligand was” for “ligand is”

Point of comparison: B7, IC50 0.3 nM. Against it:
- B1 — within 1.5-fold, 0.2 nM
- B2 — 3-fold higher, 0.9 nM
- B3 — 1.7-fold higher, 0.5 nM
- B4 — within 1.5-fold, 0.2 nM
- B5 — within 1.5-fold, 0.4 nM
- B6 — within 1.5-fold, 0.2 nM
